Consider six sequences from the supplement of paper PMC5998384.

Data set [1] relates to HeLa Kyoto. Description: thermal stability score vs G1/S (z-score of summed log2 fold changes over temperatures); higher = more thermally stable than in G1/S.
The subject of data set [2] is HeLa Kyoto. Description: melting temperature (median over replicates), in situ; higher = more thermally stable.
The test system of data set [3] is HeLa Kyoto. Description: solubility in G1/S (NP-40 vs SDS abundance) (log2 ratio); higher = more soluble. To be noted: cell cycle stage: G1/S.
Data set [4] deals with HeLa Kyoto. Description: solubility change mitosis vs G1/S (difference of NP-40 vs SDS log2 ratios) (log2 ratio difference); higher = more soluble in mitosis.
The mark [5] stands for this setting: cell cycle stage: early G1 (4.5 h after nocodazole release).
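Throughout, for melting temperature (median over replicates), in situ: HeLa Kyoto cells synchronized by double thymidine or nocodazole block, proteins quantified by TMT10plex mass spectrometry, three independent biological replicates.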
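Throughout, for solubility change mitosis vs G1/S (difference of NP-40 vs SDS log2 ratios): synchronized HeLa Kyoto cells (double thymidine block for G1/S, nocodazole release for mitosis), protein amounts in NP-40 versus SDS lysates quantified by mass spectrometry, three biological replicates.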
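Throughout, for solubility in G1/S (NP-40 vs SDS abundance): HeLa Kyoto cells arrested at G1/S by double thymidine block, proteins quantified by TMT10plex mass spectrometry in mild NP-40 versus SDS extracts, three biological replicates.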
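Throughout, for thermal stability score vs G1/S (z-score of summed log2 fold changes over temperatures): synchronized HeLa Kyoto cells, proteins quantified by TMT10plex mass spectrometry, three biological replicates, mitosis taken 0.5 h after nocodazole release, G1/S directly after double thymidine block.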

Take “MQRVSGLLSWTLSRVLWLSGLSEPGAARQPRIMEEKALEVYDLIRTIRDPEKPNTLEELEVVSESCVEVQEINEEEYLVIIRFTPTVPHCSLATLIGLCLRVKLQRCLPFKHKLEIYISEGTHSTEEDINKQINDKERVAAAMENPNLREIVEQCVLEPD [FAM96A]”: the results for the thermal stability score in data set [1] (setting [5]) and in data set [1] (cell cycle stage: mitosis) were 0.017 and -0.983, respectively. Also, the values for the melting temperature in data set [2] (cell cycle stage: G1/S) and in data set [2] (cell cycle stage: mitosis) were 54.9 °C and 55.3 °C, respectively. Moreover, the “solubility in G1/S (log2)” value in data set [3] turned out to be 0.0285. The “solubility change mitosis (log2)” value in data set [4] came to 0.184.

“MQSNKTFNLEKQNHTPRKHHQHHHQQQHHQQQQQQPPPPPIPANGQQASSQNEGLTIDLKNFRKPGEKTFTQRSRLFVGNLPPDITEEEMRKLFEKYGKAGEVFIHKDKGFGFIRLETRTLAEIAKVELDNMPLRGKQLRVRFACHSASLTVRNLPQYVSNELLEEAFSVFGQVERAVVIVDDRGRPSGKGIVEFSGKPAARKALDRCSEGSFLLTTFPRPVTVEPMDQLDDEEGLPEKLVIKNQQFHKEREQPPRFAQPGSFEYEYAMRWKALIEMEKQQQDQVDRNIKEAREKLEMEMEAARHEHQVMLMRQDLMRRQEELRRMEELHNQEVQKRKQLELRQEEERRRREEEMRRQQEEMMRRQQEGFKGTFPDAREQEIRMGQMAMGGAMGINNRGAMPPAPVPAGTPAPPGPATMMPDGTLGLTPPTTERFGQAATMEGIGAIGGTPPAFNRAAPGAEFAPNKRRRY [NONO]”: the thermal stability score came out at 4.71 in data set [1] (setting [5]) and 11.4 in data set [1] (cell cycle stage: mitosis). Moreover, the melting temperature in data set [2] (cell cycle stage: G1/S) stood at 46.6 °C; in data set [2] (cell cycle stage: mitosis), 47.8 °C. The “solubility in G1/S (log2)” value in data set [3] is -0.113. Moreover, the “solubility change mitosis (log2)” value in data set [4] came to 0.501.

For “MQTFLKGKRVGYWLSEKKIKKLNFQAFAELCRKRGMEVVQLNLSRPIEEQGPLDVIIHKLTDVILEADQNDSQSLELVHRFQEYIDAHPETIVLDPLPAIRTLLDRSKSYELIRKIEAYMEDDRICSPPFMELTSLCGDDTMRLLEKNGLTFPFICKTRVAHGTNSHEMAIVFNQEGLNAIQPPCVVQNFINHNAVLYKVFVVGESYTVVQRPSLKNFSAGTSDRESIFFNSHNVSKPESSSVLTELDKIEGVFERPSDEVIRELSRALRQALGVSLFGIDIIINNQTGQHAVIDINAFPGYEGVSEFFTDLLNHIATVLQGQSTAMAATGDVALLRHSKLLAEPAGGLVGERTCSASPGCCGSMMGQDAPWKAEADAGGTAKLPHQRLGCNAGVSPSFQQHCVASLATKASSQ [ITPK1]”, the thermal stability score in data set [1] (setting [5]) was 0.291; in data set [1] (cell cycle stage: mitosis), -1.14. The values for the melting temperature in data set [2] (cell cycle stage: G1/S) and in data set [2] (cell cycle stage: mitosis) were 51.9 °C and 51.3 °C, respectively. The “solubility in G1/S (log2)” value in data set [3] is 0.0668. Also, in data set [4], the “solubility change mitosis (log2)” value is -0.011.

“MRALRAGLTLASGAGLGAVVEGWRRRREDARAAPGLLGRLPVLPVAAAAELPPVPGGPRGPGELAKYGLPGLAQLKSRESYVLCYDPRTRGALWVVEQLRPERLRGDGDRRECDFREDDSVHAYHRATNADYRGSGFDRGHLAAAANHRWSQKAMDDTFYLSNVAPQVPHLNQNAWNNLEKYSRSLTRSYQNVYVCTGPLFLPRTEADGKSYVKYQVIGKNHVAVPTHFFKVLILEAAGGQIELRTYVMPNAPVDEAIPLERFLVPIESIERASGLLFVPNILARAGSLKAITAGSK [ENDOG]”: the thermal stability score in data set [1] (setting [5]) came to 1.54; in data set [1] (cell cycle stage: mitosis), 0.994. Moreover, the melting temperature in data set [2] (cell cycle stage: G1/S) turned out to be 51.8 °C. The “solubility in G1/S (log2)” value in data set [3] amounted to 0.34. For the same sequence, the “solubility change mitosis (log2)” value in data set [4] turned out to be 0.0884.

With “MRDRTHELRQGDDSSDEEDKERVALVVHPGTARLGSPDEEFFHKVRTIRQTIVKLGNKVQELEKQQVTILATPLPEESMKQELQNLRDEIKQLGREIRLQLKAIEPQKEEADENYNSVNTRMRKTQHGVLSQQFVELINKCNSMQSEYREKNVERIRRQLKITNAGMVSDEELEQMLDSGQSEVFVSNILKDTQVTRQALNEISARHSEIQQLERSIRELHDIFTFLATEVEMQGEMINRIEKNILSSADYVERGQEHVKTALENQKKARKKKVLIAICVSITVVLLAVIIGVTVVG [STX4]”, the figures for the thermal stability score in data set [1] (setting [5]) and in data set [1] (cell cycle stage: mitosis) were 0.652 and 0.313, respectively. Besides, the melting temperature in data set [2] (cell cycle stage: G1/S) came to 51.2 °C; in data set [2] (cell cycle stage: mitosis) it was 50.5 °C. Moreover, in data set [3], the “solubility in G1/S (log2)” value turned out to be 0.326. Further, the “solubility change mitosis (log2)” value in data set [4] was found to be 0.0104.

Consider “MRECISIHVGQAGVQIGNACWELYCLEHGIQPDGQMPSDKTIGGGDDSFNTFFSETGAGKHVPRAVFVDLEPTVIDEVRTGTYRQLFHPEQLITGKEDAANNYARGHYTIGKEIIDLVLDRIRKLADQCTGLQGFLVFHSFGGGTGSGFTSLLMERLSVDYGKKSKLEFSIYPAPQVSTAVVEPYNSILTTHTTLEHSDCAFMVDNEAIYDICRRNLDIERPTYTNLNRLISQIVSSITASLRFDGALNVDLTEFQTNLVPYPRIHFPLATYAPVISAEKAYHEQLTVAEITNACFEPANQMVKCDPRHGKYMACCLLYRGDVVPKDVNAAIATIKTKRTIQFVDWCPTGFKVGINYQPPTVVPGGDLAKVQRAVCMLSNTTAVAEAWARLDHKFDLMYAKRAFVHWYVGEGMEEGEFSEAREDMAALEKDYEEVGADSADGEDEGEEY [TUBA1C]”, for which the thermal stability score in data set [1] (setting [5]) was 0.287; in data set [1] (cell cycle stage: mitosis) it was -2.74. Besides, the melting temperature in data set [2] (cell cycle stage: G1/S) came to 55.2 °C; in data set [2] (cell cycle stage: mitosis) it was 54.6 °C. The “solubility in G1/S (log2)” value in data set [3] was 0.171. For the same sequence, the “solubility change mitosis (log2)” value in data set [4] was -0.2.
